From patent publication US6403765B1, “Truncated Apaf-1 and methods of use thereof” (Thomas Jefferson University, priority 1998, dated 2002)

Key:
[1] = molecular target: T1, T7-tagged Bcl-xL (Homo sapiens, UniProt Q07817); assay: Co-immunoprecipitation of Flag-tagged Apaf-1 variants or procaspase-9 with T7-tagged Bcl-xL in 293 cells; assay type: binding; details: anti-Flag immunoprecipitation, anti-T7 blot, 36 hours, FIG. 16
T1 construct: expressed in transfected cells; host or cells: 293 cells
Description: In vivo interaction experiments between Apaf-1 variants and Bcl-xL were performed. To analyze the ability of Apaf-1 to interact with Bcl-xL, 293 cells were co-transfected with constructs encoding T7-tagged Bcl-xL and constructs encoding Flag-tagged Apaf-97 (FIG. 16, lane 1), Apaf-1 (FIG. 16, lane 2), Apaf-530 (FIG. 16, lane 3) Apaf-530ΔCARD (FIG. 16, lane 4), or procaspase-9 C287A (FIG. 16, lane 5). After 36 hours, extracts were prepared and immunoprecipitated with a monoclonal antibody to the Flag epitope. The immunoprecipitates (FIG. 16, upper panel) were analyzed by SDS-PAGE and immunoblotted with a horseradish peroxidase-conjugated T7 antibody. The corresponding cellular extracts were also analyzed by SDS-PAGE and immunoblotted with a horseradish peroxides-conjugated T7 antibody (FIG. 16, middle panel) or an anti-Flag antibody (FIG. 16, lower panel).

[2] = molecular target: T2, T7-tagged Apaf-530 (Homo sapiens, UniProt O14727); assay: Co-immunoprecipitation of Flag-tagged Apaf-1 variants with T7-tagged Apaf-530 in 293 cells; assay type: binding; details: anti-Flag immunoprecipitation, anti-T7 blot, 36 hours, FIG. 11
T2 construct: expressed in transfected cells; host or cells: 293 cells
T2 sequence (O14727 1-530 isoform O14727-3): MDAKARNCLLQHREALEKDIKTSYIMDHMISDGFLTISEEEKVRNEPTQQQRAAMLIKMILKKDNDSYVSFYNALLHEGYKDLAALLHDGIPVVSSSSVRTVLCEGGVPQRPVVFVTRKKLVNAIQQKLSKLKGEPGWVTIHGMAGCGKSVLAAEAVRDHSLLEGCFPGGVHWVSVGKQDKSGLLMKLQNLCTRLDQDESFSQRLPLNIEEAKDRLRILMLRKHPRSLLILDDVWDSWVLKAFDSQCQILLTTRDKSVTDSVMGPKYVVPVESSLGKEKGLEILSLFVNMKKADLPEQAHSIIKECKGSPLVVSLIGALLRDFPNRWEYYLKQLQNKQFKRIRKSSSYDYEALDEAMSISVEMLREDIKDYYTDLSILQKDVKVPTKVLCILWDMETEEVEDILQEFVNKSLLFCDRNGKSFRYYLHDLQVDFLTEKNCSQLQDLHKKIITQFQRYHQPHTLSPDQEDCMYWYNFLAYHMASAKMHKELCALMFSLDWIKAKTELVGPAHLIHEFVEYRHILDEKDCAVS
Description: The ability of APAF-530 to oligomerize pro-caspase-9 was tested. Co-transfection experiments in 293 cells were performed with T7-tagged Apaf-530 and different Flag-tagged Apaf-1 variants, and cell lysates were prepared and immunoprecipitated with an anti-Flag antibody. The immunoprecipitates were analyzed by Western blotting with an anti-T7 antibody.
In FIG. 11, 293 cells were co-transfected with constructs encoding T7-tagged Apaf-530 and an empty vector (lane 1) or constructs encoding Flag-tagged Apaf-1 (lane 2), Flag-tagged Apaf-530 (lane 3), Flag-tagged Apaf-530ΔCARD (lane 4) or Flag-tagged Apaf-97 (lane 5). After 36 hours, extracts were prepared and immunoprecipitated with a monoclonal antibody to the Flag epitope. The immunoprecipitates (upper panel) were analyzed by SDS-PAGE and immunoblotted with a horseradish peroxides-conjugated T7 antibody. The corresponding cellular extracts were also analyzed by SDS-PAGE and immunoblotted with a horseradish peroxides-conjugated T7 antibody (middle panel) or an anti-Flag antibody (lower panel).

[3] = molecular target: T3, procaspase-9 (Homo sapiens, UniProt P55211); assay: In vitro caspase 9 activation assay: recombinant Apaf-1 variants incubated with in vitro translated procaspase-9; assay type: biochemical; details: bacterial lysates with truncated Apaf-1 variants, FIG. 2B
T3 construct: schematic representation of full length procaspase-9; made in house; host or cells: coupled in vitro transcription/translation in rabbit reticulocyte lysate (TNT Kit, Promega)
T3 sequence (P55211 1-416): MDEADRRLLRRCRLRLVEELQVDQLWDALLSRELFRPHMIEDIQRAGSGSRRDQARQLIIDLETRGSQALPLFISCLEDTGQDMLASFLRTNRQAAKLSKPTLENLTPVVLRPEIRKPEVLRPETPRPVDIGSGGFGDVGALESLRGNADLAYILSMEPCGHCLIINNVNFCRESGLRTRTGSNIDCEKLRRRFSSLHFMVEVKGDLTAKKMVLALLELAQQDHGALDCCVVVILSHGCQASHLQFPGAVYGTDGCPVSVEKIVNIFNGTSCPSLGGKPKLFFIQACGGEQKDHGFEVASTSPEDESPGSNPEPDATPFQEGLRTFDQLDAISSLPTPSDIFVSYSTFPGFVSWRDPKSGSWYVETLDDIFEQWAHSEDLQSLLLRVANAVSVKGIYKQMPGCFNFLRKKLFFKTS
Description: SDS sample buffer was then added to each sample, boiled and subjected to SDS-PAGE analysis followed by autoradiography. In FIG. 2A procaspase-9 was in vitro translated in the presence of ^35S-methionine. Following translation procaspase-9 was desalted by gel filtration through a biospin column (BioRad) to remove unincorporated methionine and free nucleotides. Desalted procaspase-9 was then incubated with 200 ng Ni^2+-affinity purified bacterially expressed recombinant Apaf-530 (WT or K149R mutant) in the presence or absence of cytochrome c or dATP or both for 2 h at 30° C. A mock sample containing Ni^2+-affinity purified material from bacteria transformed with an empty vector was used as a negative control. Following incubation the products were analyzed by SDS-PAGE and autoradiography. In FIG. 2B^35S-labeled procaspase-9 (as described above) was incubated with bacterial lysates containing truncated Apaf-1 variants as indicated and then analyzed as above (2B upper panel). The bacterial lysates were analyzed by SDS-PAGE and immunoblotted with an Apaf-1 antibody which recognizes the N-terminus of Apaf-1 (lanes 2-6) and an anti T7-tag antibody (lanes 7-8) to confirm expression and equivalent concentration of the different Apaf-1 variants (2B lowerpanel). The molecular mass markers are indicated to the right of the lower panel.
^35S-labeled caspases were obtained by in vitro translation in the presence of ^35S-methionine using a coupled transcription/translation system in rabbit reticulocyte lysate using TNT Kit (Promega) according to the manufacturer's recommendations.
To determine the role of the WD-40 repeat in the mechanism of Apaf-1-induced processing of procaspase-9, truncated Apaf-1 (Apaf-530) lacking its WD-40 repeats (FIG. 1) was expressed and purified. To reconstitute a recombinant caspase-9 activation system, the truncated Apaf-530 was incubated with in vitro translated recombinant procaspase-9 in the presence or absence of cytochrome c and dATP. […] It was previously shown that mutation of CED-4 K165R which is required for nucleotide binding destroys its activity (Chinnaiyan et al., Nature 388:728-729, 1997; Jarnes et al., Curr. Biol. 7:246-252, 1997; Seshagiri and Miller, Curr. Biol. 7:455-460, 1997). […] Therefore, either binding of Apaf-1 to cytochrome c and dATP or deletion of the repeats could induce a conformational change enabling Apaf-1 to bind and process procaspase-9.
In FIG. 3, ^35S-labeled WT or mutant D330A, D315A or C287A mutants of procaspase-9 or prodomainless procaspase-9 (Δpro, residues 134-416) were incubated with buffer (lanes 1, 4, 7, 10, 13), purified Apaf-530 (lanes 2, 5, 8, 11, 14) or mock purified material (lanes, 3, 6, 9, 12, 15) and then analyzed by SDS-PAGE and autoradiography.

T1 sequence (Q07817 whole entry): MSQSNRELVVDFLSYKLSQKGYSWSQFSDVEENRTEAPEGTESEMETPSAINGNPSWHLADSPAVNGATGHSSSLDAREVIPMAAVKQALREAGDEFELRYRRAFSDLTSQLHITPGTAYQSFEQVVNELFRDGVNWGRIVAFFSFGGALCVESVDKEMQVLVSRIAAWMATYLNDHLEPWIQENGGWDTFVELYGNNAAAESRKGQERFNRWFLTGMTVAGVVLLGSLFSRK

| Molecule | co-immunoprecipitation with Bcl-xL [1] | co-immunoprecipitation with T7-Apaf-530 [2] | activity of the Apaf-1 variant in promoting activation of procaspase-9 [3] |
| --- | --- | --- | --- |
| procaspase-9: Flag-tagged procaspase-9 C287A co-transfected with T7-tagged Bcl-xL (protein, UniProt P55211 1-416, looked up, variant C287A, pro-form Flag tag, Flag-tagged procaspase-9 C287A co-transfected with T7-tagged Bcl-xL) pro-form: MDEADRRLLRRCRLRLVEELQVDQLWDALLSRELFRPHMIEDIQRAGSGSRRDQARQLIIDLETRGSQALPLFISCLEDTGQDMLASFLRTNRQAAKLSKPTLENLTPVVLRPEIRKPEVLRPETPRPVDIGSGGFGDVGALESLRGNADLAYILSMEPCGHCLIINNVNFCRESGLRTRTGSNIDCEKLRRRFSSLHFMVEVKGDLTAKKMVLALLELAQQDHGALDCCVVVILSHGCQASHLQFPGAVYGTDGCPVSVEKIVNIFNGTSCPSLGGKPKLFFIQAAGGEQKDHGFEVASTSPEDESPGSNPEPDATPFQEGLRTFDQLDAISSLPTPSDIFVSYSTFPGFVSWRDPKSGSWYVETLDDIFEQWAHSEDLQSLLLRVANAVSVKGIYKQMPGCFNFLRKKLFFKTS | capable of immunoprecipitating |  |  |
| Apaf-1: full length Apaf-1, 1194 amino acids (protein, left off: small tags and cut ends, full length Apaf-1, 1194 amino acids) MDAKARNCLLQHREALEKDIKTSYIMDHMISDGFLTISEEEKVRNEPTQQQRAAMLIKMILKKDNDSYVSFYNALLHEGYKDLAALLHDGIPVVSSSSVRTVLCEGGVPQRPVVFVTRKKLVNAIQQKLSKLKGEPGWVTIHGMAGCGKSVLAAEAVRDHSLLEGCFPGGVHWVSVGKQDKSGLLMKLQNLCTRLDQDESFSQRLPLNIEEAKDRLRILMLRKHPRSLLILDDVWDSWVLKAFDSQCQILLTTRDKSVTDSVMGPKYVVPVESSLGKEKGLEILSLFVNMKKADLPEQAHSIIKECKGSPLVVSLIGALLRDFPNRWEYYLKQLQNKQFKRIRKSSSYDYEALDEAMSISVEMLREDIKDYYTDLSILQKDVKVPTKVLCILWDMETEEVEDILQEFVNKSLLFCDRNGKSFRYYLHDLQVDFLTEKNCSQLQDLHKKIITQFQRYHQPHTLSPDQEDCMYWYNFLAYHMASAKMHKELCALMFSLDWIKAKTELVGPAHLIHEFVEYRHILDEKDCAVSENFQEFLSLNGHLLGRQPFPNIVQLGLCEPETSEVYQQAKLQAKQEVDNGMLYLEWINKKNITNLSRLVVRPHTDAVYHACFSEDGQRIASCGADKTLQVFKAETGEKLLEIKAHEDEVLCCAFSTDDRFIATCSVDKKVKIWNSMTGELVHTYDEHSEQVNCCHFTNSSHHLLLATGSSDCFLKLWDLNQKECRNTMFGHTNSVNHCRFSPDDKLLASCSADGTLKLWDATSANERKSINVKQFFLNLEDPQEDMEVIVKCCSWSADGARIMVAAKNKIFLWNTDSRSKVADCRGHLSWVHGVMFSPDGSSFLTSSDDQTIRLWETKKVCKNSAVMLKQEVDVVFQENEVMVLAVDHIRRLQLINGRTGQIDYLTEAQVSCCCLSPHLQYIAFGDENGAIEILELVNNRIFQSRFQHKKTVWHIQFTADEKTLISSSDDAEIQVWNWQLDKCIFLRGHQETVKDFRLLKNSRLLSWSFDGTVKVWNIITGNKEKDFVCHQGTVLSCDISHDATKFSSTSADKTAKIWSFDLLLPLHELRGHNGCVRCSAFSVDSTLLATGDDNGEIRIWNVSNGELLHLCAPLSEEGAATHGGWVTDLCFSPDGKMLISAGGYIKWWNVVTGESSQTFYTNGTNLKKIHVSPDFKTYVTVDNLGILYILQTLE | capable of immunoprecipitating Bcl-xL | co-immunoprecipitated |  |
| Apaf-530ΔCARD: truncated Apaf-1, residues 98-530, CARD domain deleted (protein, left off: small tags and cut ends, truncated Apaf-1, residues 98-530, CARD domain deleted) SVRTVLCEGGVPQRPVVFVTRKKLVNAIQQKLSKLKGEPGWVTIHGMAGCGKSVLAAEAVRDHSLLEGCFPGGVHWVSVGKQDKSGLLMKLQNLCTRLDQDESFSQRLPLNIEEAKDRLRILMLRKHPRSLLILDDVWDSWVLKAFDSQCQILLTTRDKSVTDSVMGPKYVVPVESSLGKEKGLEILSLFVNMKKADLPEQAHSIIKECKGSPLVVSLIGALLRDFPNRWEYYLKQLQNKQFKRIRKSSSYDYEALDEAMSISVEMLREDIKDYYTDLSILQKDVKVPTKVLCILWDMETEEVEDILQEFVNKSLLFCDRNGKSFRYYLHDLQVDFLTEKNCSQLQDLHKKIITQFQRYHQPHTLSPDQEDCMYWYNFLAYHMASAKMHKELCALMFSLDWIKAKTELVGPAHLIHEFVEYRHILDEKDCAVS | capable of immunoprecipitating Bcl-xL | co-immunoprecipitated | inactivated |
| Apaf-97: truncated Apaf-1, residues 1-97, entire CED-4 homology region deleted (protein, left off: small tags and cut ends, truncated Apaf-1, residues 1-97, entire CED-4 homology region deleted) MDAKARNCLLQHREALEKDIKTSYIMDHMISDGFLTISEEEKVRNEPTQQQRAAMLIKMILKKDNDSYVSFYNALLHEGYKDLAALLHDGIPVVSSS | not | not | inactivated |
